IntAct's records for PubMed 12839993

B1: Cullin-1 (Arabidopsis thaliana (Mouse-ear cress)), Q94AH6 (parent)
chain: MERKTIDLEQGWDYMQTGITKLKRILEGLNEPAFDSEQYMMLYTTIYNMCTQKPPHDYSQQLYDKYREAFEEYINSTVLPALREKHDEFMLRELFKRWSNHKVMVRWLSRFFYYLDRYFIARRSLPPLNEVGLTCFRDLVYNELHSKVKQAVIALVDKEREGEQIDRALLKNVLDIYVEIGMGQMERYEEDFESFMLQDTSSYYSRKASSWIQEDSCPDYMLKSEECLKKERERVAHYLHSSSEPKLVEKVQHELLVVFASQLLEKEHSGCRALLRDDKVDDLSRMYRLYHKILRGLEPVANIFKQHVTAEGNALVQQAEDTATNQVANTASVQEQVLIRKVIELHDKYMVYVTECFQNHTLFHKALKEAFEIFCNKTVAGSSSAELLATFCDNILKKGGSEKLSDEAIEDTLEKVVKLLAYISDKDLFAEFYRKKLARRLLFDRSANDDHERSILTKLKQQCGGQFTSKMEGMVTDLTLARENQNSFEDYLGSNPAANPGIDLTVTVLTTGFWPSYKSFDINLPSEMIKCVEVFKGFYETKTKHRKLTWIYSLGTCHINGKFDQKAIELIVSTYQAAVLLLFNTTDKLSYTEILAQLNLSHEDLVRLLHSLSCAKYKILLKEPNTKTVSQNDAFEFNSKFTDRMRRIKIPLPPVDERKKVVEDVDKDRRYAIDAAIVRIMKSRKVLGHQQLVSECVEQLSRMFKPDIKAIKKRMEDLITRDYLERDKENPNMFRYLA

Experiments:
[1] = variants of: B1; settings: with skp1a_arath SKP1A
iaa7_arath IAA7, Q38825 = variants of: B1; settings: with iaa7_arath IAA7, Q38825
Sequence of iaa7_arath IAA7, Q38825 (Q38825 whole entry): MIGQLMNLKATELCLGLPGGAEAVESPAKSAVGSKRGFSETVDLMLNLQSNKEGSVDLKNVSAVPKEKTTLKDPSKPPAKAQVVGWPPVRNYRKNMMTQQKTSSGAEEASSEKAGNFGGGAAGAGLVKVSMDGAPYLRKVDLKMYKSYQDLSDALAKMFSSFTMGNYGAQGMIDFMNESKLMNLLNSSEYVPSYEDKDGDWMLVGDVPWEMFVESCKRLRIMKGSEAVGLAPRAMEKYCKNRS

| effect of a mutation on the interaction [1] | effect of a mutation on the interaction (iaa7_arath IAA7, Q38825) | Variant |
| --- | --- | --- |
| decreasing interaction | decreasing interaction | F112I |
| decreasing interaction | decreasing interaction | F112V |
